Assay results from publication PMC3517013.

What was measured:
purified protein [1] = substrate: OCC1=C[C@H](N[C@H]2C[C@H](CO)[C@@H](O[C@@H]3O[C@H](CO)[C@@H](O)[C@H](O)[C@H]3O)[C@H](O)[C@H]2O)[C@H](O)[C@@H](O)[C@@H]1O; assay: purified protein; type: biochemical, Streptomyces hygroscopicus; details: apparent; co-substrate α-ketoglutarate, Fe(II); hydroxylation at C-6'
purified protein [2] = substrate: O=C(O)CCC(=O)C(=O)O; assay: purified protein; type: biochemical, Streptomyces hygroscopicus; details: apparent; co-substrate validamycin A, Fe(II)

B1: VldW (Streptomyces hygroscopicus subsp. limoneus) (protein)
chain: MTGSVPIVDLEAWRAADEENRASLAEIIDGALHTVGTFLLAGHGVPAELTARMRTAGRSFFDLPWEKKEPHAVQRPHDNGWRGLVKHRTDTIEGTGGAPDLHEAFHMGPTHRTGDDAFDALYYPANKWPAELPELRETALAYTAHMTRVAGAVMEMLAGVLGLEPAFFTSRCEHATWTQSVNWYPSLDTVGQTAEGQMRVGPHTDFGTITLLDRQQGVSGLEVWSEEDGWFAPPFVEGTLLVNLGDLMHQWTDGRWRSLRHRVLAPSASAPQEELVSLVYFFDADPEAELVPLAAPVGGGAGMPTVNVGETILKKNIQMLTDLKGHGLFQGELSLSRPGSADSPGSSPADDHPSRPGRHPAQGPQ
Question: For B1, which Km (purified protein [1]) is on record?
Answer: Its Km is 303 ± 36 µM.

Question: And the kcat (purified protein [1])?
Answer: The kcat was 0.0162 ± 0.00233 s⁻¹.

Question: And the Km (purified protein [2])?
Answer: The Km was 19 ± 3.5 µM.

Question: And the kcat (purified protein [2])?
Answer: Its kcat is 0.0162 ± 0.00233 s⁻¹.
